Measurements published in patent US20210324050A1 (VANDERBILT UNIVERSITY, published 2021).

T1: GII.4 Houston 2002 (ABY27560.1) VLPs (human norovirus GII.4 Houston 2002, UniProt P54635 1-539)
T1 construct: also called GII.4 Houston 2002 antigen; GII.4 Houston VLPs
T1 chain: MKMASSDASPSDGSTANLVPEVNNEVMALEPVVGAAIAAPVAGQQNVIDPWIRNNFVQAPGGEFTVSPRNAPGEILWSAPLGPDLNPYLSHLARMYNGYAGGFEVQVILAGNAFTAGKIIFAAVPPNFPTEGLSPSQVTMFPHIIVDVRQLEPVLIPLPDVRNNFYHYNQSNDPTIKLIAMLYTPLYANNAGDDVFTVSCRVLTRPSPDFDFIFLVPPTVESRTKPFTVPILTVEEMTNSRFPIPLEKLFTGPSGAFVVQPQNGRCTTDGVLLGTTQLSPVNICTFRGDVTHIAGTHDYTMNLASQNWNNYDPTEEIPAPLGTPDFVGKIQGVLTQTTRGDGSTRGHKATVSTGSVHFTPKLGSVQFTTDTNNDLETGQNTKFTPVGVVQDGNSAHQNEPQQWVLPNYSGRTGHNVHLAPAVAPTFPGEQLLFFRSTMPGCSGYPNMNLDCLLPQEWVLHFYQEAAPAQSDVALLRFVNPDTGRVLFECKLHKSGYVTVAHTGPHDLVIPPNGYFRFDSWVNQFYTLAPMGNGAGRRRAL

T2: GII.4 Sydney 2012 virus-like particles (VLPs), based on strain AFV08795.1 (human norovirus GII.4 Sydney 2012, UniProt P54635 1-538)
T2 construct: also called GII.4 VLPs
T2 chain: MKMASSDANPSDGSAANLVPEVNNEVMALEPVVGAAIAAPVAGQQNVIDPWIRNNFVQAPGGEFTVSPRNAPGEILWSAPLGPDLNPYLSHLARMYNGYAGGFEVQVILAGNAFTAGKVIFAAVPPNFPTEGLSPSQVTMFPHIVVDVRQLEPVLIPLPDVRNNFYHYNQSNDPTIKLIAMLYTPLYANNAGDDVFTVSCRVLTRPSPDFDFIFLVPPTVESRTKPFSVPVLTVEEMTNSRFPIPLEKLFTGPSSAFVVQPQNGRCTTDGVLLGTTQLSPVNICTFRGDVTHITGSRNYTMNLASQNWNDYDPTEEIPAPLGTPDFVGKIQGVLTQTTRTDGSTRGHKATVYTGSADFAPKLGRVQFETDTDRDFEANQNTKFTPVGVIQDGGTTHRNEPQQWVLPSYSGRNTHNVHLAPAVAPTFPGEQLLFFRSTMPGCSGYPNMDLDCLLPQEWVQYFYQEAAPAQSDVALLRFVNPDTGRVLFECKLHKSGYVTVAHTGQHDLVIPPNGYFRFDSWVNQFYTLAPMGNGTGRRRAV


Columns and labels:
[1] = target: T1, GII.4 Houston 2002 (ABY27560.1) VLPs; assay: ELISA on GII.4 Houston 2002 VLPs
[2] = target: T2, GII.4 Sydney 2012 virus-like particles …; assay: indirect ELISA on coated GII.4 Sydney 2012 VLPs
[3] = target: GII.4 Sydney 2012 virus-like particles (VLPs), based on strain AFV08795.1 (human norovirus GII.4 Sydney 2012, UniProt P54635 1-538); assay: indirect ELISA on coated GII.4 Sydney 2012 VLPs

Row | Binder | binding result [1] | EC50 [2] [µg/mL] | EC50 [3] [µg/mL]
1 | NORO-303 (antibody, V domains shown) VH: QVQLVESGGGVVQPGRSLRLSCAASGFIFSSYAMHWVRQAPGKGLEWVAVMSYDGNNKYYADSVKGRFTISRDNSKNTLFLQMNSLRPEDTAVYYCARDCRVGWVFTYGMDVWGQGTLVTVSS VL: QSALTQPPSASGSPGQSVTISCTGTSSDVGGYNYVSWYQQHPGKAPKLMMYEISKRPSGVPIRFSGSKSGNTASLTVSGLQAEDEADYYCSSYAGTYNCVVFGGGTKLTVL | binds | 0.5 | –
2 | NORO-273A (antibody, V domains shown) VH: QVQLVQSGAEVKKPGASVKISCKASGYDFTSFPMHWVRLGPGQRLEWMGWISAANGNTKYSQKFQDRFTITRDTSASIVHMELSSLRSEDTAVYYCARGGYSSGLYRYSNYYYGMTVWGQGTLVTVSS VL: DIVMTQTPLSLSVTPGQPASISCKSSESLLHNDRKTYLFWYLQKPGQPPQLLIFQVSNRFSGVPDRFSGSGSGTDFTLRISRVEAEDVGIYYCLQTTQLPLTFGGGTKVEIK | binds | 0.2 | –
3 | NORO-315B (antibody, V domains shown) VH: QVQLVESGGGLVKPGGSLRLSCVASGFTFSDYYMTWFRQTPGRGLEWLSYISAIGGYTEYADSVKSRFIISRDNGKKSLYLQMNSLRAEDSGVYYCAREDCHGTSCYSGDWGQGTLVTVSS VL: QSVLTQPPSVSGAPGQRVTISCTGSSSNIGAGYDVHWYQQLPGTAPKLLIYHNTNRPSGVPDRFSGSKSGTSAYLTITGLQAEDEADYYCQSYDRSLSKSRVFSGGTKLTVL | binds | 0.7 | –
4 | NORO-246A (antibody, V domains shown) VH: EVHLVESGGGLVKPGGSLRLSCAASGFTFSRYGMHWVRQAPGKGLEWVSSIVIRSDYKYYADSVKGRFTISRDNAKNSLYLQMNSLRADDTAVYYCARDLVEPGITPVGCDYWGRGTLVTVSS VL: SNELTQAPSVSVSPGQTARITCFGDALANQYSYWYQRKPGQAPVLVIYKDSERPSGIPQRFSASNSGTTVTLTITGVQAEDEADYFCQSADSTGIYKVFGGGTKLTVL | – | – | 0.2
5 | NORO-251A (antibody, V domains shown) VH: QVQLVESGGGVVQPGRSLRLSCAASGFTFRSYGIHWVRQAPGKGLEWVALISYDGSSKYYADSVKGRFTISRDNSKNTLYLQMNSLRSEDTAVYYCAKVRLTSYSIGWFSFDYWGQGTLVTVSS VL: QSVLTQPPSVSAAPGQKVTISCSGSSSNIANYYVSWYQQLPGRAPKLLIYDNNKRPSGIPDRISGSKSGTSATLGITGLQTGDEADYYCGTWDTSLSAWVFGGGTKLTVL | binds | 0.9 | –
6 | NORO-327A (antibody, V domains shown) VH: QVQLEVSGGGLVKPGGSLRLSCAASGFTFTDYYMSWIRQAPGKGLEWVAYISGIMSSTKYADSVKGRFTISRDNGKNSVYLQMNSLTAEDTAVYYCARERVEPPSAVTDFWGQGTLVTVSS VL: QSVLTQSPSVSGAPGQRVTISCTGTSSNIGAGYDVHWYQQFPGTAPKLLISHNTNRPSGVPDRFSGSKSGTSASLAITGLQAEDEADYYCQSFDSSLRGSRVFGGGTKLTVL | – | – | 0.6
7 | NORO-278 (antibody, V domains shown) VH: QVQLVESGGGVVQPGRSLRLSCAASGFTFSSYGMHWVRQAPGKGLEWVAVISYDGSNKYYADSVKGRFTISRDNSKNTLYLQMNSLRAEDTAVYYCAKVTIIAAADLLDYWGQGTLVTVSS VL: QSVLTQPPSVSGAPGQRVTISCTGSSSNIGAGYDVHWYQQLPGTAPKLLIYGNSNRPSGVPDRFSGSKSGTSASLAITGLQAEDEADYYCQSYDSSLSGPVVFGGGTKLTVL | binds | 4 | –
8 | NORO-123 (antibody, V domains shown) VH: QVQLVESGGGVVQPGRSLRLSCSTSGFTFSQYPMHWVRQAPGKGLEWVALISYDGMNKYYADSVRGRFTISRDNSENTQYLQMNSLRGDDTAVYYCARVTGDCTGNRCSYWAYYYYGLDVWGQGTLVTVSS VL: QSALTQPPSASGSPGQSVTISCTGTSSDVGGYKYVSWYQQHPGKAPKLMIYEVTRRPSGVPDRFSGSKSGNTAFLTVSGLQAEDEADYYCGSYAGSTTSGYVFGTGTKVIVL | binds | 5.4 | –
9 | NORO-279A (antibody, V domains shown) VH: QVQLVESGGGVVQPGRSLRLSCAASGFTFTKYGMHWVRQAPGKGLEWVAFIAYDGSVKYYGDSAKGRFAISRDNPKNTVYLQMNSLRAEDTAVYYCAKVEIHYYSNSLLGMDVWGQGTLVTVSS VL: QSVLTQPPSASGTPGQRVTISCSGGNSNIGISYVYWYQHLPGTAPKLLISKNNLRPSGVPDRFSASKSGTSASLAISGLRSEDEAEYYCATLDINMTWVFGGGTKLTVL | binds | 0.2 | –
10 | NORO-256A (antibody, V domains shown) VH: QVQLVESGGGVVQAGRSLRLSCAASGFTFRSYGMHWVRQAPGKGLEWVAIISYDGGSKYYADSVKGRFTISRDNSKNTLYLQMNSLRVEDTALYYCAKDFLRVYSYGWHSFDIWGLGTLVTVSS VL: QSVLTQPPSVSAAPGQRVTISCSGSSSNIGTYYVSWYQHLPGTAPKLLIYDNDKRPSGIPDRFSASKSGTSATLDIAGLQTGDEADYYCGTWDLSLTAGWVFGGGTKLTVL | binds | 0.9 | –
11 | NORO-310A (antibody, V domains shown) VH: EVQLVESGGGLVRPGESLRLSCVASGFSVSDNYMSWVRQAPGKGLQWVSVIYSGGTTFYTDSVKGRFTISRDKSKNTLFLQMNSLRAEDTAVYFCTRDPSQYYDSRGHYYQTFTPSFDSWGQGTLVTVSS VL: DIQMTQSPSVMSASVGDRVTITCRASQDISDYLAWFQQKPGKVPKRLIYAASSLQNGVPSRFSGSGSGTEFTLTISSLQPEDFATYYCLQHDTYPLTFGGGTKVEIK | binds | 6.2 | –
12 | NORO-263 (antibody, V domains shown) VH: QVQLVESGGGLVKPGGSLRLSCAASGFTLSDYYMSWIRQAPGKGLEWVAYISSSHTSTYYRDSVKGRFTISRDSAKKSLYLQMNSLRVEDTAIYYCARDWVGGRSAYSDHWGQGTLVTVSS VL: SYELTQPPSVSVSPGQTARITCSGDALPRRPAFWYQQKSGQAPVLVMYDDSKRPSGIPERFSGSSSGTVATLTISGAQVEDEADYHCYSTDSSGKERVFGGGTKLTVL | binds | 0.6 | –
13 | NORO-296A (antibody, V domains shown) VH: QVQLVESGGGLVKPGGSLRLSCAASGFTFSEYYMSWVRQAPGKALEWVSYITSSFSSTSYADSVKGRFVISRDNAKNSLYLQMNSLRVEDTAVYYCARYGAEYGSRSFYFLDWGQGTLVTVSS VL: QSVLTQPPSVSGAPEQRVTISCTGSSSNIGAGYDVHWYQVLPGIAPKLLIYDNNKRPSGVPDRFSGSKSGTSASLAITGLQAEDEADYYCQSYDSRLSSNVVFGGGTKLTVL | binds | – | –
14 | NORO-313.1 (antibody, V domains shown) VH: QVQLVESGGGLVKPGGSLRLSCAASGFTFSDFYMSWIRQAPGKGLEWVGYISSIAGATNYADSVKGRFTISRDSSKRSLYLQMNSLRVEDTAVYYCARMGRLELERRPHYYYPLDVWGQGTLVTVSS VL: not shown | binds | – | –
15 | NORO-232A.2 (antibody, V domains shown) VH: QVQLKQWGAGLLKSSETLSLTCAFNGNSFGAFYWSWIRLSPGKGLEWIGEVNYLGGADYNPSLKSRVTMSADTSKRQFSLSLKSVTAADTGVYFCARGRPHDYSPGSYSRPRRYYGLDVWGQGTTVTVSS VL: EIVLTQSPATLSLSPGDSATLSCRASQAVSTTYLAWYQQTRGQAPRLLIHGTYTRAIGIPDKFSGTGSGTDFTLTISGLAPEDFAVYYCQQYSSSPYTFGQGTKIEIT | – | – | 0.3
16 | NORO-250B (antibody, V domains shown) VH: QVQLVESGGGLVKPGGSLTLSCAASGFTFSDYYMNWIRQAPGKRLEWVSYISGIMSSTNYADSVKGRFTISRDTAKKSVYLQMNSLRAEDTAVYYCARATSQGATSYYFDSWGQGTLVTVSS VL: QSVLTQPPSVSGAPGQRVTISCTGSSSNIGADYDVHWYQQLPGAAPRLLIYADINRPSGVPDRFSGSKSGTSASLAITGLQAEDEADYYCQSYDRSVSGSAVFGGGTKVTVL | binds | – | –
